According to patent US20240400671A1 (LANIER BIOTHERAPEUTICS, published 2024):

T1: recombinant human IL-25 (R&D Systems) (human, UniProt Q9H293 33-177)
T1 sequence (looked up): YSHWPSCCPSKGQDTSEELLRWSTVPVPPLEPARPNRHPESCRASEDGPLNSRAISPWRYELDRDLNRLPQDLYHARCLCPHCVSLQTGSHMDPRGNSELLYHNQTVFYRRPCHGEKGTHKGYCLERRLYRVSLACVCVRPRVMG


Target: T1, recombinant human IL-25 (R&D Systems)
Assay: cell-based or functional assay

Row | IC50 | Binder
1 | 0.22 µg/mL | hABM125.34 (antibody, V domains shown) VH: QVTLKESGPTLVKPTQTLTLTCTFSGFSLSTSGMGVGWIRQPPGKALEWLAHIWWDDVKRYNPSLKSRLTITKDTSGSQVVLTMTNMDPVDTATYYCARTLPHFHDYWGQGTTLTVSS VL: DIQMTQSPSTLSASVGDRVTITCRASSSVSYMYWYQQKPGKAPKPLIYRTSNLASGVPSRFSGSGSGTEYTLTISSLQPDDFATYYCKQYHSYPPTWTFGGGTKLEIKR
2 | 0.18 µg/mL | ABM125 (Chimera) (antibody, V domains shown, N-glycosylation site in heavy chain CDR1 created by S29N, confirmed biophysically) VH: QVTLKVSGPGILQPSQTLSLTCSFSGFSLNTSGMGVGWIRQPSGKGLEWLAHIWWDDVKRYNPALKSRLTISKDTSGSQVFLKIASVDTADTATYYCARTLPHFFDYWGQGTTLTVSS VL: DIQMTQSPAIMSASPGEKVTISCRASSSVSYMYWYQQKSGSSPKPWIYRTSNLASGVPARFSGSGSGTSYSLTISSMEAEDAATYYCKQYHSYPPTWTFGGGTKLEIKR
